From the supplement of paper PMC9170038

Test system: MS2 coat protein
Assay: apparent KD of MS2 coat protein; designed switch direction (-1 OFF switch, 1 ON switch): -1; higher = weaker reporter binding
How it was run: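 Normalised cluster fluorescence was curve-fitted, and each design's median over clusters is its apparent KD. Before this, SNAP-549-labelled MS2 coat protein was titrated from 0.7 or 1.5 nM, doubling to 3 µM, over RNA switches transcribed on Illumina chips by stalled E. coli RNA polymerase. Titrations had no input, 200 uM small-molecule ligand, or an oligonucleotide input, and steps lasted 0.8–1.5 h (lowest) to 10–20 min (highest).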

[1] = input ligand: microRNA oligo, concentration not stated
[2] = Eterna round: R95, input ligand: microRNA oligo, concentration not stated

Sequence	apparent KD of MS2 coat protein (input ligand: FMN 200 uM)	apparent KD of MS2 coat protein [1]	apparent KD of MS2 coat protein (input ligand: none)	apparent KD of MS2 coat protein [2]	apparent KD of MS2 coat protein (Eterna round: R95, input ligand: FMN 200 uM)	apparent KD of MS2 coat protein (Eterna round: R95, input ligand: none)
GACCAAUAGGUAGGAUAUCAUUGCGAUUAGCUAUGAGAAGGACCACAUGAGGAUCACCCAUGUCCUCUAAUUAGCCAAUUGGUA [8th something] (Eterna round: R96, puzzle: Exclusion NG 1)	426 nM	170 nM	90.9 nM			
ACAUGAGGAUCACCCAUGUUUGUUGGGUACUCUUUUUACAGCAAGGAUAUGCAUGUUUUUUUUACGCAGAAGGUGCUGGACGUC [JR_ExcNG3_Sub068] (Eterna round: R96, puzzle: Exclusion NG 3)	381 nM	163 nM	653 nM			
UGAGCUCUAGUAGGAUAUGUCGGAUAUGUUGUUGAGGUUCACCCAACGACGUCAAUGACAGAAGGACAGAAGGACUCCUGCUCU [pwkr exNG2 2xFMN 1xF5.7] (Eterna round: R96, puzzle: Exclusion NG 2)	111 nM	77 nM	315 nM			
GGCAUGUGAGGAUAUGUACCUGAGUGCUUUGCGCUCAGGAAACAGAAGGCACAUGAGGAUCACCCAUGUGAUAA [jl-ex4-4.49 ViennaUCT mod] (Eterna round: R97, puzzle: Exclusion 4)	67.7 nM		710 nM			
CUUAUGUGAGGAUAUCAGUAGUGAUACGAUAGUAUUACUGCUGAGAAGGCACAUGAGGAUCACCCAUGUUCCUC [Exclusion 4 - Mod Omei Ex4 344 mod 4 v.2] (puzzle: Exclusion 4)				91.6 nM		
UUUUACAAGCUAAGAUCCUACAUGAGGAUCACCCAUGUGGUCCGGUGACGUGAGUCACCGGACUUAGCUCGUCUUGU [JL TOV1 3.70] (Eterna round: R97, puzzle: Sensor, turn-off variant 1)	80.3 nM		88.2 nM			
UAUUUGCAAGGAUAUGAUUUAAGUAACAUGAGGAUCACCCAUGUUUUUCCGUUGUUAUGUUCAGAAGGUGCGUGAU [JR_E5_Sub020] (puzzle: Exclusion 5)				50.9 nM		
ACAAGCUUAAAAGGUGAUAACAUGAGGAUCACCCAUGUUCGUCUUAUAAAAAUAAAAAUAAAAAAUAAAAAAUAAAA [Sensor V2: 61] (Eterna round: R96, puzzle: Sensor v2, turn-off variant)	23.1 nM	114 nM	24.2 nM			
UCACGGGACUGAGGAUAUACAUGAAUUAUUUUUGUAGAAGGCAGAAUGUUAGAUUAUACACUAUACAUGAGGAUCACCCAUGUU [JR_ExcNG1_Sub023] (Eterna round: R96, puzzle: Exclusion NG 1)	16.1 nM	20.5 nM	19.7 nM			
GGAAGCAAGGAAUAACUAAACAUGAGGAUCACCCAUGUAGAGCCCAUGUGCACGCAAAGCGUGCAAGCUCGUCUUAU [AK-miRNA-r3-17] (Eterna round: R97, puzzle: Sensor, turn-off variant 1)	64.4 nM		80.8 nM			
AAUUUACAUGAGGAUCACCCAUGUCAGGAUAUGGUUUUAUUUUUUUUUUUUUUUUAUUCCAGAAGGGACAGUUA (puzzle: Exclusion 1)				17 nM	24.2 nM	14.8 nM
CAGUACUGAGGAUAUACAUGAGGAUCACCCAUGUGUGUGAGUUUUGUAUGAAUGUUAUGUAGAAGGCGGUGCUG [JR_Ex3_Sub034] (Eterna round: R97, puzzle: Exclusion 3)	285 nM		504 nM			
CUGAGCUGAGGAUAUACAUGAGGAUCACCCAUGUUAAGCAGCUAGUGAAGAAGUAGAUGUAGAAGGCAGUUCGG [Mod of JL 21 - Jieux - Exclusion 3] (Eterna round: R97, puzzle: Exclusion 3)	75.2 nM		21 nM			
AGCCAAGCAGGAUAUAUCCGGGAUAACAUGAGGAUCACCCAUGUGACCGAUUGAUGUCCUAUAGAAGGGCUUGGGA [Mod of ViennaUCT 22 - Jieux - Exclusion 5] (Eterna round: R97, puzzle: Exclusion 5)	176 nM		43.5 nM			
AAAUUAAGUGUGAGGAUAUGCUGGUCCUUAGAUCAGCAGAAGGCACAUGAGGAUCACCCAUGUAAUAUAUUUAA [Mat - Exclusion 4 - JL Mod - D50] (puzzle: Brourd's mod of Exclusion 4)				35.4 nM		
UUUUUGUCAGGAUAUGAUUAGAUCUACUUUUGUAGAUCUAAUCAGAAGGGACAUGAGGAUCACCCAUGUAGUUU [Ex4 - 3 - 11] (puzzle: Exclusion 4)				35.7 nM		
CUUGUUUAUGUGAGGAUAUACUGUUAGUAAUGUUUGUAGAAGGUACAUGAGGAUCACCCAUGUUUAUUUCCUUU [JR_BME4_Sub045] (puzzle: Brourd's mod of Exclusion 4)				13.8 nM		
GCAGCAAAUUCCACUAAAACCACAUGAGGAUCACCCAUGUCUCAGGAUAUGGUCUGGAUUACAGGCCAGAAGGGAGAAAGCUGC [Eli exng3 - 056] (Eterna round: R96, puzzle: Exclusion NG 3)	12.3 nM	9.52 nM	14.8 nM			
AUUAAACGUGUAGGAUAUGCGUGGCGAAGCUAUGCAGAAGGACAUGAGGAUCACCCAUGUUCUAGCGUCUGCGUACAGAUGCUA [JL eng1 1.35 mod 5] (Eterna round: R96, puzzle: Exclusion NG 1)	25.1 nM	11.4 nM	16.3 nM			
UAUCAUCAUGUAGGAUAUGCGUGGCAAAGCUAUGCAGAAGGACAUGAGGAUCACCCAUGUUCUAGCGUCUGCGUACAGAUGCUA [Mat - Exclusion NG 1 - Mod of JL - D74] (Eterna round: R96, puzzle: Exclusion NG 1)	247 nM	45.2 nM	68.7 nM			
UUAUUAAGUGUGAGGAUAUGCUGGUCCUUGGAUCAGCAGAAGGCACAUGAGGAUCACCCAUGUACAAUAUAUUA [Mat - Exclusion 4 - JL Mod - D30] (Eterna round: R96, puzzle: Brourd's mod of Exclusion 4)	235 nM	30.5 nM	42.1 nM			
CUCUUGGCAGGAUAUGCUCUCUUAGACAUGAGGAUCACCCAUGUGUUCAUUCUUUCUUUUGCAGAAGGGCCUUAAC [JR_E5_Sub046] (Eterna round: R96, puzzle: Exclusion 5)	128 nM	57.9 nM	76.9 nM			
AGUGUGUGGCAGGAUAUGCUAUUGAUUGGUGAAGCAGAAGGGUCUACAUGAGGAUCACCCAUGUAAGCGGUUGA [Ex6 #28] (Eterna round: R97, puzzle: Exclusion 6)	327 nM		46.4 nM			
GCCUCACAUGAGGAUCACCCAUGUCAGGAUAUCUCGUGCGCAGUAAUUAUCUGGCUAAAGAGAAGGGACAUUAA [Bedile] (puzzle: Exclusion 1)				46.6 nM		
UUAAUUUAAGGGAUAGAUCAUUACAUGAGGAUCACCCAUGUUGAGGAUAUCAGCUCGUGUAGAGCUGAGAAGGCAACAAUAGGG [ExNG3/14-A3] (Eterna round: R96, puzzle: Exclusion NG 3)	249 nM	377 nM	92.3 nM			
